In paper PMC12101541 one finds Kd, degree of dissociation and stoichiometry N data, which are given here for six substances.

Assay [1] concerns the target full-length TgSkp1 (Skp1 from Toxoplasma gondii), unmodified (Toxoplasma gondii). Kind of assay: AUC; sedimentation velocity, 50,000 rpm, 20 °C, 50 mM K phosphate (pH 7.4), 25 mM KCl (standard buffer); Sw isotherm fitted with a monomer-dimer self-association model (SedPhat); dimer to monomers.
In assay [2] the target is TgSkp1ΔCTR (TgSkp1 lacking the C-terminal region) (Toxoplasma gondii). Described as above.
The target in assay [3] is TgSkp1-poly-Ser (TgSkp1 with the CTR replaced by poly-serine) (Toxoplasma gondii). The description is as above.
For assay [4], the target named is TgSkp1ΔloopΔCTR (TgSkp1 with the internal loop replaced by GGSG and the CTR deleted) (Toxoplasma gondii). Kind of assay: AUC; sedimentation velocity as in the standard experiment but with 600 mM KCl (high salt, ionic strength of 710 mM); Sw isotherm, monomer-dimer model; dimer to monomers.
Assay [5] shares this target. The assay is described as follows: AUC; sedimentation velocity, 50,000 rpm, 20 °C, 50 mM K phosphate (pH 7.4), 25 mM KCl (standard buffer); Sw isotherm fitted with a monomer-dimer self-association model (SedPhat); dimer to monomers.
Assay [6] deals with TgSkp1Δloop (TgSkp1 with the internal disordered loop replaced by GGSG) (Toxoplasma gondii). Kind of assay: AUC; sedimentation velocity as in the standard experiment but with 600 mM KCl (high salt, ionic strength of 710 mM); Sw isotherm, monomer-dimer model; dimer to monomers.
For assay [7] the target is unchanged. The assay is described as follows: AUC; sedimentation velocity, 50,000 rpm, 20 °C, 50 mM K phosphate (pH 7.4), 25 mM KCl (standard buffer); Sw isotherm fitted with a monomer-dimer self-association model (SedPhat); dimer to monomers.
For assay [8], the target named is GGlFGGn-TgSkp1 (fully glycosylated TgSkp1, GalGlcFucGalGlcNAc glycan at Hyp154) (Toxoplasma gondii). The description is as above.

In assay [1], “full-length TgSkp1 (Skp1 from Toxoplasma gondii), unmodified (natural protein)” displayed a Kd of 50 nM, a degree of dissociation at 300 nM of 18% and a stoichiometry N of 2.

For the substance “TgSkp1ΔCTR (TgSkp1 lacking the C-terminal region) (domain or fragment)”, in assay [2], the Kd was 900 nM and the stoichiometry N worked out at 2.

Regarding “TgSkp1-poly-Ser (TgSkp1 with the CTR replaced by poly-serine)”, in assay [3], the Kd is 900 nM and the stoichiometry N amounted to 2.

Take “TgSkp1ΔloopΔCTR (TgSkp1 with the internal loop replaced by GGSG and the CTR deleted) (domain or fragment)”: in assay [4], the Kd came out at 1900 nM. For the same substance, in assay [5], the Kd amounted to 2400 nM and the stoichiometry N was found to be 2.

For the substance “TgSkp1Δloop (TgSkp1 with the internal disordered loop replaced by GGSG) (natural protein)”, the Kd in assay [6] was 8.5 µM; in assay [7], 200 nM. The same substance came in with a stoichiometry N in assay [7] of 2.

Turning to “GGlFGGn-TgSkp1 (fully glycosylated TgSkp1, GalGlcFucGalGlcNAc glycan at Hyp154) (natural protein)”, in assay [8], the Kd stood at 400 nM and the stoichiometry N came to 2.
